According to the Immune Epitope Database (IEDB):

What was measured:
Details in all cases: source organism: Human immunodeficiency virus type 1 (JRCSF ISOLATE)
HLA-A*03:01 [1] = assay: IEDB peptide-MHC binding, purified MHC/competitive/radioactivity; filed as Kd, often an IC50 or EC50 that approximates it; ≥ and ≤ were set here for values at or beyond the usual limits of such assays
HLA-A*03:01 [2] = assay: IEDB peptide-MHC binding, purified MHC/competitive/radioactivity; ≥ and ≤ were set here for values at or beyond the usual limits of such assays
HLA-A*11:01 [3] = assay: as above
HLA-A*11:01 [4] = assay: IEDB peptide-MHC binding, purified MHC/competitive/radioactivity; filed as Kd, often an IC50 or EC50 that approximates it; ≥ and ≤ were set here for values at or beyond the usual limits of such assays

Sequence | Kd (HLA-A*03:01 [1]) | IC50 (HLA-A*03:01 [2]) | IC50 (HLA-A*11:01 [3]) | Kd (HLA-A*11:01 [4])
MTKILEPFR | 13800 nM | – | – | –
AIFQSSMTK | – | 10 nM | – | –
NTPVFAIKK | – | 333 nM | 100 nM | –
MVHQAISPR | – | 61.1 nM | 89.6 nM | –
AVFIHNFKR | – | 64.7 nM | 3.3 nM | –
QMVHQAISPR | – | 423 nM | – | 6000 nM
MAVFIHNFK | – | 647 nM | 20 nM | –
TLFCASDAK | – | 118 nM | – | –
TTLFCASDAK | – | 120 nM | 27.3 nM | –
QMAVFIHNFK | – | 9.2 nM | – | –
TIKIGGQLK | – | 40.7 nM | 182 nM | –
KIQNFRVYYR | – | 344 nM | – | –
YLAWVPAHK | – | 143 nM | – | –
